Test results published in patent US20090291081A1 (AbbVie / Abbott, published 2009).
Numbering of substitutions follows the chain as printed. Read-outs that look alike come from different tables or passages of the source.

Experiments:
human IL-1β [1] = target: human IL-1β (human, UniProt P01584 117-269); test: cell-based or functional assay
human IL-1α [2] = target: T1, human IL-1α (human, UniProt P01583 113-271); test: cell-based or functional assay
T1 sequence (looked up): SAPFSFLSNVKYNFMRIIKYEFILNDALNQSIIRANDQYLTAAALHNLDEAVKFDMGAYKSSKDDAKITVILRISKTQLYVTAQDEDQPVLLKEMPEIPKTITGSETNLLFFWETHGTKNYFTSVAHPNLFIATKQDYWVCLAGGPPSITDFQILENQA

human IL-1β [3] = target: T2, human IL-1β (human, UniProt P01584 117-269); test: cell-based or functional assay; remark: listed apart in the source
human IL-1β [4] = target: T2, human IL-1β; test: BIAcore (SPR)
human IL-1α [5] = target: T3, human IL-1α (human, UniProt P01583 113-271); test: cell-based or functional assay; remark: listed apart in the source
T3 sequence (looked up): T1 sequence (looked up)

human IL-1α [6] = target: T3, human IL-1α; test: cell-based or functional assay; remark: listed apart in the source
human IL-1α [7] = target: T3, human IL-1α; test: BIAcore (SPR)
human IL-1α [8] = target: T1, human IL-1α; test: cell-based or functional assay; remark: listed apart in the source
human IL-1α [9] = target: T3, human IL-1α; test: Table 62 IC50; RBA presumed
human IL-1α [10] = target: T3, human IL-1α; test: Table 62 KD; BIAcore presumed

B1: Fab ABT1-6-23/ABT2-46 (Fab, V domains shown)
VH: EVQLLESGGGLVQPGGSLRLSCAASGFTFVRYDMAWVRQAPGKGLEWVSSIYKSGALTSYDSVKGRFTISRDNSKNTLYLQMNSLRAEDTAVYYCAKGWASFDYWGQGTLVTVSS
VL: DIQMTQSPSSLSASVGDRVTITCRASQSIIEWLSWYQQKPGKAPKLLIYRTSVLQSGVPSRFSGSGSGTDFTLTISSLQPEDFATYYCQQNEFWPFTFGQGTKVEIKR
Fab IL-1β ND10 (human IL-1β [1]): 150 nM
Fab IL-1α ND10 (human IL-1α [2]): 4 nM

B2: ABT2-46 (other)
VL: B1 VL
notes: VK dAb
MRC5 ND50 (human IL-1β [3]): 386 nM
Kd (human IL-1β [4]): 2800 nM

B3: Fab ABT1-98/ABT2-76 (Fab, V domains shown)
VH: EVQLLESGGGLVQPGGSLRLSCAASGFTFDGYIMSWVRQAPGKGLEWVSTISPLGSVTYYADSVKGRFTISRDNSKNTLYLQMNSLRAEDTAVYYCAKKGPWFDYWGQGTLVTVSS
VL: B1 VL with I30D, E31R, S34A, T51G, V53I, N91V, E92A, F96P
Fab IL-1β ND10 (human IL-1β [1]): 1500 nM
Fab IL-1α ND10 (human IL-1α [2]): 100 nM

B4: Fab ABT1-6-23/ABT2-13 (Fab, V domains shown)
V domain 1: B1 VH
V domain 2: EVQLLESGGGLVQPGGSLRLSCAASGFTFRDYVMYWARQAPGKGLEWVSRIDPMGSSTYYADSVKGRFTISRDNSKNTLYLQMNSLRAEDTAVYYCAKPEGNFDYWGQGTLVTVSS
Fab IL-1β ND10 (human IL-1β [1]): > 500 nM
Fab IL-1α ND10 (human IL-1α [2]): 40 nM

B5: Fab ABT1-96/ABT2-46 (Fab, V domains shown)
VH: EVQLLESGGGLVQPGGSLRLSCAASGFTFNQYNMFWVRQAPGKGLEWVSVISGSGRFTYADSVKGRFTISRDNSKNTLYLQMNSLRAEDTAVYYCAKGWWRRDPPFDYWGQGTLVTVSS
VL: B1 VL
Fab IL-1β ND10 (human IL-1β [1]): 400 nM
Fab IL-1α ND10 (human IL-1α [2]): 6 nM

B6: ABT1-98 (other)
VH: B3 VH
notes: VH dAb
MRC5 ND50 (human IL-1α [5]): 30 nM
ND50 (human IL-1α [6]): < 100 nM
Kd (human IL-1α [7]): 13 nM

B7: ABT1-96 (other)
VH: EVQLLESGGGLVQPGGSLRLSCAASGFTFNQYNMFWVRQAPGKGLEWVSVISGSGRFTYYADSVKGRFTISRDNSKNTLYLQMNSLRAEDTAVYYCAKGWWRRDPPFDYWGQGTLVTVSS
notes: VH dAb
MRC5 ND50 (human IL-1α [5]): 11 nM
ND50 (human IL-1α [6]): 17 nM
Kd (human IL-1α [7]): 1.1 nM

B8: ABT1-95-A3 (other)
VL: DIQMTQSPSSLSASVGDRVTITCRASKPGVRNMRWYQQKPGKAPKLLIYSVSYLEPGVPSRFSGSGSGTDFTLTISSLQPEDFATYHCLQGYRWPPTFGQGTKVEIKR
MRC5 ND50 (human IL-1α [8]): 11 pM

B9: ABT1-95-A6 (other)
VL: B8 VL with S50A, V51K, L89K, P96V, T97Q
MRC5 ND50 (human IL-1α [8]): 24 pM

B10: ABT1-95-A5 (other)
VL: B8 VL with K27R, P28T, G29P, M33L, V51R, Y53F
MRC5 ND50 (human IL-1α [8]): 16 pM

B11: ABT1-95-181 (other)
VL: B8 VL with G29I
MRC5 ND50 (human IL-1α [8]): 14 pM

B12: Fab ABT1-95/ABT2-13 (Fab, V domains shown)
VH: B4 V domain 2
VL: DIQMTQSPSSLSASVGDRVTITCRASQPIHGNLRWYQQKPGKAPKLLIYNISNLQSGVPSRFSGSGSGTDFTLTISSLQPEDFATYYCQQGYRWPVTFGQGTKVEIKR
Fab IL-1β ND10 (human IL-1β [1]): 400 nM
Fab IL-1α ND10 (human IL-1α [2]): 200 nM

B13: ABT1-95 (other)
VL: B12 VL
notes: VK dAb
MRC5 ND50 (human IL-1α [5]): 800 nM
ND50 (human IL-1α [6]): 800 nM
Kd (human IL-1α [7]): 45 nM
IC50 (human IL-1α [9]): 500 nM

B14: ABT2-13 (other)
VH: B4 V domain 2
notes: VH dAb
MRC5 ND50 (human IL-1β [3]): ~1000 nM
Kd (human IL-1β [4]): 930 nM

B15: ABT1-141 (other)
VL: DIQMTQSPSSLSASVGDRVTITCRASQWIQKQLAWYQQKPGKAPKLLIYSSSYLQSGVPSRFSGSGSGTDFTLTISSLQPEDFATYYCQQHLRVPFTFGQGTKVEIKR
notes: VK dAb
MRC5 ND50 (human IL-1α [5]): 50 nM
ND50 (human IL-1α [6]): 142 nM
Kd (human IL-1α [7]): 300 nM

B16: ABT1-122 (other)
VL: DIQMTQSPSSLSASVGDRVTITCRASQPIWTELNWYQQKPGKAPKLLIYGSSSLQSGVPSRFSGSGSGTDFTLTISSLQPEDFATYYCQQFAYFPATFGQGTKVEIKR
notes: VK dAb
MRC5 ND50 (human IL-1α [5]): 50 nM
ND50 (human IL-1α [6]): 100 nM
Kd (human IL-1α [7]): 42 nM
IC50 (human IL-1α [9]): 80 nM

B17: ABT1-86 (other)
VH: EVQLLESGGGLVQPGGSLRLSCAASGFTFDRYIMAWVRQAPGKGLEWVSSITPSGAATYYADSVKGRFTISRDNSKNTLYLQMNSLRAEDTAVYYCAEEPADRYSTWTFDYWGQGTLVTVSS
notes: VH dAb
MRC5 ND50 (human IL-1α [5]): 900 nM
ND50 (human IL-1α [6]): 900 nM
Kd (human IL-1α [7]): 110 nM
IC50 (human IL-1α [9]): 1000 nM

B18: Fab ABT1-141/ABT2-65 (Fab, V domains shown)
VH: EVQLLESGGGLVQPGGSLRLSCAASGFTFEDYQMGWVRQAPGKGLEWVSSISAMGNRTYYADSVKGRFTISRDDSKNTLYLQMNSLRAEDTAVYYCAKNLVRTQSKMWMFDYWGQGTLVTVSS
VL: DIQMTQSPSSLSASVGDRVTITCRASQWIQKQLAWYQQKPGKAPKLLIYSSSYLQSGVPRFSGSGSGTDFTLTISSLQPEDFATYYCQQHLRVPFTFGQGTKVEIKR
Fab IL-1β ND10 (human IL-1β [1]): 300 nM
Fab IL-1α ND10 (human IL-1α [2]): 80 nM

B19: Fab ABT1-122/ABT2-65 (Fab, V domains shown)
VH: B18 VH
VL: DIQMTQSPSSLSASVGDRVTITCRASQPIWTELNWYQQKPGKAPKLLIYGSSSLQSGVPRFSGSGSGTDFTLTISSLQPEDFATYYCQQFAYFPATFGQGTKVEIKR
Fab IL-1β ND10 (human IL-1β [1]): 1500 nM
Fab IL-1α ND10 (human IL-1α [2]): 40 nM

B20: ABT1-6-23 (other)
VH: EVQLLESGGGLVQPGGSLRLSCAASGFTFVRYDMAWVRQAPGKGLEWVSSIYKSGALTSYADSVKGRFTISRDNSKNTLYLQMNSLRAEDTAVYYCAKGWASFDYWGQGTLVTVSS
notes: VH dAb
Kd (human IL-1α [10]): 6 nM
ND50 (human IL-1α [6]): 30 nM
Kd (human IL-1α [7]): 61 nM
IC50 (human IL-1α [9]): 30 nM
